US8933202B2, “AXL antibodies” (U3 Pharma GmbH, priority 2007, dated 2015)

What was measured:
[1] = test system: NIH3T3-AXL cl.7 fibroblasts; test: Boyden chamber/transwell migration assay; assay type: cell-based; conditions: 10 μg/ml antibody, with or without 400 ng/ml Gas6, 7 h
Description: Transmigration experiments were performed in order to investigate whether the antibodies of the invention block cell migration. For this purpose, in the morning of day 1, NIH3T3-AXL cl.7 cells were seeded on 15 cm dished in normal growth medium, which in the evening was replaced by serum-reduced medium (DMEM, 0.5% FCS) in order to starve cells for 36 h. The next day, a FluoroBlock 96 well plate (Becton Dickinson #351164, 8 μm pore size) was coated with 10 μg collagen 1/ml 0.1 M acetic acid over night at 37° C. On day 3, the serum-reduced medium (DMEM, 0.5% FCS) was replaced by serum-free medium (DMEM, 0% FCS, 0.1% BSA) for another 4 h. Cells were harvested with 10 mM EDTA in PBS and pre-incubated with rat anti-AXL antibodies 4A6, 11B7 or 2A1 at a cell density of 4×10^5 cells/ml and an antibody concentration of 10 μg/ml for 45 min. 50 μl cell suspension (20,000 cells) per well were then placed in the top chamber of the FluoroBlock 96-well plate, 225 μl medium (DMEM, 0% FCS, 0.1% BSA) with or without 400 ng/ml mouse Gas6 (R&D Systems) were used per well in the bottom chamber. Cells were left to migrate for 7 h at 37° C. and stained afterwards with 4.2 μM calcein-AM (Molecular Probes #C3099) in PBS, 1 mM CaCl2, 1 mM MgCl2 for 1 h at 37° C. Using a Victor plate reader (Perkin Elmer), the fluorescence of each well was measured at a wavelength of 530 nm.

[2] = biological target: T1, AXL (Homo sapiens, UniProt P30530); test: AXL receptor tyrosine phosphorylation ELISA; assay type: cell-based; set-up: expressed in transfected cells; host or cells: NIH3T3-AXL cl.7 (pLXSN-hAXL) and NCI-H292 lung cancer cells (endogenous AXL); conditions: 10 μg/ml antibody, 400 ng/ml Gas6; NIH3T3-AXL cl.7 fibroblasts and NCI-H292 lung cancer cells
T1 sequence (P30530 26-894): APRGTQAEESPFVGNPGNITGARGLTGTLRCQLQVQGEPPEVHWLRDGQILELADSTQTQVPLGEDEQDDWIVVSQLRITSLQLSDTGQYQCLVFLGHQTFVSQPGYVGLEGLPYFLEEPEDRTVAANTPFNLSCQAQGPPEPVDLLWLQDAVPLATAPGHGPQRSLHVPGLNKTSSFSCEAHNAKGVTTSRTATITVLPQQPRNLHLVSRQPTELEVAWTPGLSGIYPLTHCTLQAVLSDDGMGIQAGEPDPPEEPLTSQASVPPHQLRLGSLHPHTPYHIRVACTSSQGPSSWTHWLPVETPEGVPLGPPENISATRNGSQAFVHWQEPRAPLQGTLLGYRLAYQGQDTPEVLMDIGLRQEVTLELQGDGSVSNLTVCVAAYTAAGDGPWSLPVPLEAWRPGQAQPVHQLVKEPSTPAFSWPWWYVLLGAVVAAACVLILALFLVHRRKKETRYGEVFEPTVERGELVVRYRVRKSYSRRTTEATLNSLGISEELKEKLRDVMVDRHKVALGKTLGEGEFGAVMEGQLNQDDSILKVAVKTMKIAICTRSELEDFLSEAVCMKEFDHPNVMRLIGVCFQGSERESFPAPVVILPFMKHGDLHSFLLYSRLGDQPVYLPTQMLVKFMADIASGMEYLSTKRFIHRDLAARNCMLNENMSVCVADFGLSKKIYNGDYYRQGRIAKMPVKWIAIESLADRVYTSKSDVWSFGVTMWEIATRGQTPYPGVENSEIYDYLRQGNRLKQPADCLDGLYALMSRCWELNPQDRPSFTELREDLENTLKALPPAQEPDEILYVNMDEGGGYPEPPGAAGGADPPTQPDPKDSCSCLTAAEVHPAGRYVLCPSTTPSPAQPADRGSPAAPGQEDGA
Description: ELISA experiments were performed in order to investigate whether the rat anti-AXL antibodies of the invention are able to block ligand Gash-mediated activation of AXL. Gas6-mediated AXL activation was detected by increased receptor tyrosine phosphorylation. In brief, on day 1, 3×10^4 cells per well were seeded in normal growth medium in flat-bottom 96 well plates. The next day, growth medium was replaced by serum-free medium to starve cells over night for 24 h. Also over night, black Maxi-Sorp 96 well plates (Nunc) were coated with mouse anti-phospho-tyrosine antibody 4G10 at 2 μg/ml PBS and 4° C. On day 3, the 4G10 antibody solution was removed and Maxi-Sorp wells were blocked with PBS, 0.5% BSA for at lest 4 h at room temperature. […] Medium was then flicked out and cells were lysed in lysis buffer (50 mM HEPES, pH 7.5, 150 mM NaCl, 1 mM EDTA, 10% glycerine, and 1% Triton X-100) supplemented with phosphatase and protease inhibitors (10 mM Na4P2O7, 1 mM phenylmethylsulfonyl fluoride, 1 mM orthovanadate, 1 mM NaF, and 0.5% aprotinin) for 30 min on ice. […] Using a Victor plate reader (Perkin Elmer), the fluorescence of each well was collected at an excitation wavelength of 430 nm and an emission wavelength of 580 nm.

[3] = test system: NCI-H292 lung cancer cells; test: Wound healing/scratch assay; assay type: cell-based, human; conditions: 10 μg/ml antibody, 24 h, compared to isotypic control antibody
Text: To examine the migration and proliferation rates of different cells and culture conditions, in vitro wound healing/scratch assays are being employed for many years. These assays generally involve growing a confluent cell monolayer first. A small area is then disrupted and a group of cells are being destroyed or displaced by scratching a line through the layer with, for example, a pipette tip. The open gap is then inspected microscopically over time as the cells move in and fill the damaged area (“healing”). In brief, 1.5×10^6 NCI-H292 lung cancer cells were seeded per well of a 12 well dish and cultured in normal growth medium (RPMI, 10% FCS). After 8 h, cells were rinsed with PBS and starved in low serum medium (RPMI, 0.5% FCS) over night for 24 h. Using a sterile 200 μl pipette tip, three separate uniform wounds per well were scratched through the confluent NCI-H292 cell monolayers. […] Cells were permitted to migrate into the area of clearing for 24 h, washed once with PBS and fixed with ice cold Methanol (100%) at −20° C. After cells were stained with crystal violet (0.5% in 20% Methanol), rinsed with water and dried over night, photos of the wounds were taken.

B1: 11B7: antagonistic rat anti-AXL monoclonal antibody, rat IgG1 (antibody, V domains shown)
VL: DIQMTQAPSSLPASLGDRVTITCRASQDIGNYLRWFQQKPGKSPRLMISGATNLAAGVPSRFSGSRSGSDYSLTISSLESEDMADYYCLQSKESPWTFGGGTKLELK
VH: EVQLQESGPGLVKPSQSLSLTCSVTGYSITSNYWGWIRKFPGDKMEWMGYITYSGSTSYNPSLKSRISITRDTSKNQFFLQLNSVTSEDTATYYCAITTFYYWGQGVMVTVSS
[1]
  directed cell migration: reduced both basal and Gas6-induced migration
[2]
  ligand-mediated AXL activation (phosphorylation): able to block or reduce ligand-mediated AXL activation
[3]
  re-population of the cleared area (wound closure): reduced the re-population of the cleared area
